The record followed here is patent US12077599 (SEOUL NATIONAL UNIVERSITY R AND DB FOUNDATION NATIONAL …, dated 2024).

To fix the notation:
T1: ROS1 synthetic peptide (amino acids 39-56 of ROS1 combined to GGGC) conjugated to BSA (human, not fully specified; conjugated to bovine serum albumin (BSA) or ovalbumin (OVA))
T1 peptide: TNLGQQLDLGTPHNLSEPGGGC

B1: alanine-substituted ROS1-hFc fusion protein, Gly42 replaced with alanine (Fc fusion, not shown: a dimerising Fc or GST; small tags and cut ends)
chain: CVTNLAQQLDLGTPHNLSEPCIQGCHFWNSVDQKNCALKCRESCEVGCSSAEGAYEEEVLENADLPTAPFASSIGSHNMTLRWKSANFSGVKYIIQWKYAQLLGSWTYTKTVSRPSYVVKPLHPFTEYIFRVVWIFTAQLQLYSPPSPSYRTHPHGVPETAPLIRNIESSSPDTVEVSWDPPQFPGGPILGYNLRLISKNQKLDAGTQRTSFQFYSTLPNTIYRFSIAAVNEVGEGPEAESSITTSSSAVQQEE
notes: One of the 13 single alanine mutants from Gly42 to Ser54; also called G42A
B2: alanine-substituted ROS1-hFc fusion protein, L45A mutant (Fc fusion, not shown: a dimerising Fc or GST; small tags and cut ends)
chain: B1 chain with A6G, L9A
notes: also called L45A mutant of ROS1 protein
B3: alanine-substituted ROS1-hFc fusion protein, Gln44 replaced with alanine (Fc fusion, not shown: a dimerising Fc or GST; small tags and cut ends)
chain: B1 chain with A6G, Q8A
notes: also called Q44A
B4: alanine-substituted ROS1-hFc fusion protein, L47A mutant (Fc fusion, not shown: a dimerising Fc or GST; small tags and cut ends)
chain: B1 chain with A6G, L11A
notes: also called L47A mutant of ROS1 protein
B5: alanine-substituted ROS1-hFc fusion protein, G48A mutant (Fc fusion, not shown: a dimerising Fc or GST; small tags and cut ends)
chain: B1 chain with A6G, G12A
notes: also called G48A mutant of ROS1 protein
B6: alanine-substituted ROS1-hFc fusion protein, Gln43 replaced with alanine (Fc fusion, not shown: a dimerising Fc or GST; small tags and cut ends)
chain: B1 chain with A6G, Q7A
notes: also called Q43A
B7: alanine-substituted ROS1-hFc fusion protein, Asp46 replaced with alanine (Fc fusion, not shown: a dimerising Fc or GST; small tags and cut ends)
chain: B1 chain with A6G, D10A
notes: also called D46A
B8: 3B20 scFv (phage-displayed clone) (scFv)
scFv: LTQPSSVSANLGGTVKITCSGGSYGYGWYQQKAPGSAPVTVIYDNTNRPSDIPSRFSGSKSGSTGTLTITGVQVEDEAVYYCGSADSSSIATFGAGTTLTVLGQSSRSSGGGGSSGGGGSAVTLDESGGGLQTPGGTLSLVCKASGFSFSDRGMHWMRQAPGKGLEYVGAISGDGYITHYGAAVKGRATISRDNGQSTVRLQLNNLRAEDTATYYCTRGGGGNIDAWGHGTEVIVSSTS
notes: the phage coat fusion is not described
B9: 3B20-G1K scFv (phage-displayed clone) (scFv)
scFv: B8 scFv with V39A, G219K
notes: Clone from the HCDR3 first-residue NNK library in pComb3XSS, tested as phage in ELISA; also called 3B20-GIK
B10: 3B20 scFv-Cκ fusion protein (scFv)
chain: B8 scFv
notes: Coated on the plate in the alanine scanning ELISA; not shown: human kappa light chain constant region (Cκ)
B11: 3B20 scFv-rFc fusion protein (Fc fusion, rabbit)
chain: B8 scFv
notes: domain: fragment crystallizable region Fc (rFc); scFv fused with rabbit Fc, expressed from modified pCEP4; also called 3B20-rFc; scFv(3B20)-rFc fusion protein; not shown: rabbit antibody fragment crystallizable region Fc (rFc)

Substitutions are numbered along the chain they refer to. Names and notes keep the numbering of the source.

For one assay, the target named is T2, bovine serum albumin (bovine, UniProt P02769 25-607).
T2 construct: Negative control coating in the alanine scanning ELISA; also called BSA
T2 sequence (P02769 25-607 limits assumed): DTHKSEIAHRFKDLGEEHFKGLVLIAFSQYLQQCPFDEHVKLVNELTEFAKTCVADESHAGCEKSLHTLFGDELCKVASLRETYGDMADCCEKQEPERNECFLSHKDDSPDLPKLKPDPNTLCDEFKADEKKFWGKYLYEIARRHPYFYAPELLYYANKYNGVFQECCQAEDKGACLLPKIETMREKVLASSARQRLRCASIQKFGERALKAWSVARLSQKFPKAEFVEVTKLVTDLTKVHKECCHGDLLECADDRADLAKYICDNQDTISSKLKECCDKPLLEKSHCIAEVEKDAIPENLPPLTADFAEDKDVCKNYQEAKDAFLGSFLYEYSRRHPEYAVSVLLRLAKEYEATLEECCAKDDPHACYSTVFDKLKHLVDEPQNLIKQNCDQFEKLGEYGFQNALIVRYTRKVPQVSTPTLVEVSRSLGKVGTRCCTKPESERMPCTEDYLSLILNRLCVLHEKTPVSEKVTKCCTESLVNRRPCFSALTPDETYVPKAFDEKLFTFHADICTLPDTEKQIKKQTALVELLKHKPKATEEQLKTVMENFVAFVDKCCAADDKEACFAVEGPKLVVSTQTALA
Nature of the assay: ELISA, BSA coated, ROS1-hFc mutant in solution, HRP anti-hFc. As for the experimental part: (§1) For alanine scanning mutagenesis of the 3B20 scFv, microtiter plates (Corning Costar) were coated with 100 ng of the 3B20 scFv-Cκ fusion protein, BSA, or the irrelevant scFv-Cκ fusion protein overnight at 4° ° C. After blocking, the plates were incubated with alanine-substituted ROS1-human antibody Fc (hFc) fusion proteins (each amino acid residue from the 42th amino acid residue (Gly) to the 54th amino acid residue (Ser) was replaced with alanine) or a wild type ROS1-hFc fusion protein. The amount of bound fusion protein was determined using an HRP-conjugated rabbit anti-human IgG Fc antibody (Thermo Fisher Scientific, Rockford, IL, USA).
(§2) Example 2. Epitope Mapping of the 3B20 scFv by Alanine Scanning Mutagenesis Assay To further confirm the epitope of the 3B20 scFv, alanine scanning mutagenesis assay was performed using recombinant ROS1 proteins corresponding to amino acids 37-290. First, alanine-substituted ROS1 mutants in which any one of amino acid residues from Gly42 to Ser54 of ROS1 was substituted were prepared. After coating the microtiter plate well with the 3B20 scFv-Cκ fusion protein, BSA or irrelevant scFv-Cκ fusion protein, the plate was incubated with the alanine-substituted ROS1-hFc fusion protein or wild-type ROS1-hFc fusion protein. The amount of the ROS1-hFc fusion protein combined to the plate was measured using the HRP-conjugated anti-hFc antibody and ATBS solution. The obtained result was shown in FIG. 2a (3B20 scFv-Cκ fusion protein coating), 2b (BSA coating) and 2c (irrelevant scFv-Cκ fusion protein coating).

The target of assay [1] is T1, ROS1 synthetic peptide (amino acids …). As to the kind of experiment: phage ELISA after five rounds of biopanning on the peptide conjugate. The source says: Three White Leghorn chickens were immunized and boosted three times with the synthetic peptide ([…] […] (SEQ ID NO: 16); fusion polypeptide in which the 39th to 56th amino acid regions of ROS1 (GenBank Accession No. NP_002935.2) combined to "GGGC") conjugated to keyhole limpet hemocyanin (Peptron; Daejun, S. Korea). A phage display of a chicken single-chain variable fragment (scFv) antibody library was constructed [See C. F. Barbas, Phage Display: a Laboratory Manual, Cold Spring Harbor Laboratory Press, Cold Spring Harbor, N Y, 2001]. After five rounds of biopanning on the ROS1 synthetic peptide ([…]-[…]) conjugated to either bovine serum albumin (BSA) or ovalbumin (OVA), the single-chain variable fragment (scFv)-displaying phages were subjected to enzyme-linked immunosorbent assay (ELISA) [See C. F. Barbas, Phage Display: a Laboratory Manual, Cold Spring Harbor Laboratory Press, Cold Spring Harbor, N Y, 2001; S. Park, D. H. Lee, J. G. Park, Y. T. Lee, J. Chung, A sensitive enzyme immunoassay for measuring cotinine in passive smokers, Clin. Chim. Acta 411 (2010) 1238-1242].

The target of assay [2] is T3, GRP75 (Enzo Life Sciences) (UniProt P38646 47-679, limits assumed).
T3 construct: Purchased protein coated in ELISA
T3 sequence (P38646 47-679 limits assumed): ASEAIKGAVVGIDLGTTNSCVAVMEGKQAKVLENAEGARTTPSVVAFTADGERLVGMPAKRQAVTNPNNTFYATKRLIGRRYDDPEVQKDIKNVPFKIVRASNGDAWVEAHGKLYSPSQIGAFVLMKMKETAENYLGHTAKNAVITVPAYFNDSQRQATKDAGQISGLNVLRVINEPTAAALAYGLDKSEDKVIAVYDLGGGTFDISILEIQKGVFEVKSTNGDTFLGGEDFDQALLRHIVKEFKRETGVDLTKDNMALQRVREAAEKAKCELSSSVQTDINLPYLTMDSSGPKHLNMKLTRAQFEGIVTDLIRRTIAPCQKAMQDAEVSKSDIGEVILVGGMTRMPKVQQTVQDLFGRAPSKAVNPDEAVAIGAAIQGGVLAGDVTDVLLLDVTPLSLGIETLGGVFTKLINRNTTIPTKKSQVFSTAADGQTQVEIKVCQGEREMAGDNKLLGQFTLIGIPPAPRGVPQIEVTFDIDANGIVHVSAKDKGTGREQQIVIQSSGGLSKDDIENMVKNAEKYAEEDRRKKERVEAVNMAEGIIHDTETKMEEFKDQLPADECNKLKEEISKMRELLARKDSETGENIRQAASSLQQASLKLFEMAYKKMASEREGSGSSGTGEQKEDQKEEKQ
Nature of the assay: phage ELISA. On the procedure:
Each codon in the bracket in the forward primer sequence of the second fragment was replaced with NNK. Subsequently, these PCR fragments were purified and subjected to overlap extension PCR. The overlap extension PCR was performed using 100 ng PCR fragments each by after preparatory modification of DNA at 95° C. for 5 minutes, 30 cycles of DNA modification at 95° C. for 30 seconds, combination of primers at 56° C. for 30 seconds, and elongation at 72° C. for 30 seconds, and then it was terminated after incubation for 5 minutes. The obtained overlap extension PCR products were purified and subcloned into a pComb3XSS phagemid vector using Sfi I restriction enzyme and transformed into *Escherichia coli* [See C. F. Barbas, Phage Display: a Laboratory Manual, Cold Spring Harbor Laboratory Press, Cold Spring Harbor, N Y, 2001]. From the output titer plate, phages were rescued from randomly selected colonies and subjected to ELISA [See C. F. Barbas, Phage Display: a Laboratory Manual, Cold Spring Harbor Laboratory Press, Cold Spring Harbor, N Y, 2001].
Example 3. Screening of Modified scFv with Enhanced Specificity from the HCDR3 Site-Directed Mutagenesis Library Based on the result of Example 2, to generate monoclonal antibody clones nonreactive to Hsp70 but reactive to ROS1, HCDR3 site-directed mutagenesis libraries were constructed. […]

In assay [3] the target is B1. As to the kind of experiment: alanine scanning ELISA, 3B20 scFv-Cκ coated, ROS1-hFc mutant in solution, HRP anti-hFc. As for the experimental part:
as §1, §2

The target in assay [4] is B6. The assay is described as above. As for the experimental part: as §1, §2
The target in assay [5] is B3. The assay is described as above. On the procedure: as §1, §2
Assay [6] deals with B7. The assay is described as above. As for the experimental part:
as §1, §2

The target of assay [7] is T4, Stress-70 protein, mitochondrial (GRP75), from HEK293T cell lysate (human, UniProt P38646 47-679).
T4 construct: Identified by LC-MS/MS against the IPI human database; also called IPI00007765 (+1)
T4 sequence (P38646 47-679 limits assumed): as above
Nature of the assay: immunoprecipitation with 3B20 scFv-rFc from HEK293T lysates, LC-MS of the 70 kDa band. As for the experimental part: (§3) HEK293T cell lines overexpressing either ROS1 or GFP were lysed in cold lysis buffer [1% Triton X-100, 150 mM NaCl, 50 mM Tris (pH 8.0)] containing 1 mM phenylmethane sulfonyl fluoride (Merck KGaA, Darmstadt, Germany) a protease inhibitor cocktail (Roche), and a phosphatase inhibitor cocktail (Roche). Lysates were incubated with 3B20 scFv or 3B20 scFv-G1K fused to the rFc fusion protein (5 μg/mL) and protein A-conjugated agarose beads (RepliGen, Waltham, MA, USA). After washing, proteins bound to beads were eluted by boiling in NuPAGE LDS Sample Buffer (Thermo Fisher Scientific) and subjected to SDS-PAGE and immunoblotting (See Reference example 4). The eluted proteins separated by SDS-PAGE were visualized using Coomassie Brilliant Blue R250 (Merck). […]
(§4) To investigate the proteins reactive to 3B20 scFv, immunoprecipitation was performed using a 3B20 scFv-rFc fusion protein from HEK293T cells transfected with lentiviral vector encoding human ROS1 (full-length) or GFP (control). […] Bands corresponding to 70 kDa and 260 kDa were excised from the gel and analyzed by liquid chromatography/MS. The obtained result was shown in FIG. 1c, and the list of proteins analyzed in (A) and (B) bands represented by arrows in FIG. 1c was shown in the following Table 2. As expected, ROS1 (accession number: IPI0028965; SEQ ID NO: 9) was detected in a band of 260 kDa.

Assay [8] concerns the target T5, Heat shock 70 kDa protein 1A/1B, from HEK293T cell lysate (human, UniProt P0DMV8 2-641).
T5 construct: Identified by LC-MS/MS against the IPI human database; also called Hsp70; HSP70
The assay is described as above. As for the experimental part: as §3, §4

T5 sequence (P0DMV8 2-641 limits assumed): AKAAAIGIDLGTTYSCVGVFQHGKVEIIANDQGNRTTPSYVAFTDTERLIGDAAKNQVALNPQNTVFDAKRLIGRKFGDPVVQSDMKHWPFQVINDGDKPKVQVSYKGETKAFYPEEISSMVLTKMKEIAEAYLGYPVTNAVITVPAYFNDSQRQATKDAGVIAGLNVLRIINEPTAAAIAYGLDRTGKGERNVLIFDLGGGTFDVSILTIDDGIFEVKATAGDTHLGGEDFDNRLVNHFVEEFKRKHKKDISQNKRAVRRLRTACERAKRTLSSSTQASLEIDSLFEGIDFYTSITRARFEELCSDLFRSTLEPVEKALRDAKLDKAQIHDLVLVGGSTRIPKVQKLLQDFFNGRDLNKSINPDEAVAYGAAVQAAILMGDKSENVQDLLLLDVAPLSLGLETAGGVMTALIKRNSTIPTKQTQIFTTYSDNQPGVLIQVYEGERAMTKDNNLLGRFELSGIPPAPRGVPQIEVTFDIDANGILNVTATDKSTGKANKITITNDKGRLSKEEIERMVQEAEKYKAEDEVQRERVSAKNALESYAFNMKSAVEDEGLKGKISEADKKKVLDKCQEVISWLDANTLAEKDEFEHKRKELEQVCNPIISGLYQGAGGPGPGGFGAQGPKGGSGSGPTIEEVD

B1: the binding result with bovine serum albumin is “no binding”.

For B2, in the assay with bovine serum albumin, the binding result was “no binding”. For B3, the binding result with bovine serum albumin is reported as “no binding”.

B4: the binding result in the assay with bovine serum albumin is “no binding”. Regarding B5, the binding result in the assay with bovine serum albumin was “no binding”. For B6, in the assay with bovine serum albumin, the binding result is “no binding”. Same read-out and setting: as for B7, the entry is “no binding”. On to B8, for which the binding result in [1] is “binds”. In the case of B9, the binding result in assay [2] is “no binding”.

With B10, the binding result in assay [3], in assay [4], in assay [5] and in [6] was “binds” in each case. Regarding B11, the binding result in [7] and in [8] was “binds” throughout.
